Data reported in patent publication US20230136252A1 (NANJING LEGEND BIOTECH, published 2023).

T1: recombinant human GPC2-His protein (human, UniProt Q8N158 24-554, limits assumed)
T1 construct: Bought protein; The SPR paragraph gives no catalogue number for GPC2-His; also called recombinant Human Glypican 2 Protein; recombinant human GPC2 protein; not shown: His tag
T1 sequence (looked up): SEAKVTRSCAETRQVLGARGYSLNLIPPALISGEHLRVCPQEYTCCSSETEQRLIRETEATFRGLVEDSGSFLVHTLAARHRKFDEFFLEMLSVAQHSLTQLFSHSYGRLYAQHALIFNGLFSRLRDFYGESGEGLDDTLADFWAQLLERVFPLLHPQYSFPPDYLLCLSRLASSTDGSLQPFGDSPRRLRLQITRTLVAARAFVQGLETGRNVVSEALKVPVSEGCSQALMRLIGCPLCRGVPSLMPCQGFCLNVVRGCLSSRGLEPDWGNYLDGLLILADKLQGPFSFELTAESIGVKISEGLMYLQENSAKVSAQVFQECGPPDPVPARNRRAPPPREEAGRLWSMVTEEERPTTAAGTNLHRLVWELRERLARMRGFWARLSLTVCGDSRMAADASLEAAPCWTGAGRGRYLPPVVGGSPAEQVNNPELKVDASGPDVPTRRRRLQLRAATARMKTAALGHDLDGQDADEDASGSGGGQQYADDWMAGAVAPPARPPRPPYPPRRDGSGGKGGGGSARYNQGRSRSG

T2: recombinant mouse GPC2-His (mouse, UniProt Q8BKV1 22-556, limits assumed)
T2 construct: Bought protein; also called murine GPC2; RD System Cat #2355-GP; not shown: His tag
T2 sequence (looked up): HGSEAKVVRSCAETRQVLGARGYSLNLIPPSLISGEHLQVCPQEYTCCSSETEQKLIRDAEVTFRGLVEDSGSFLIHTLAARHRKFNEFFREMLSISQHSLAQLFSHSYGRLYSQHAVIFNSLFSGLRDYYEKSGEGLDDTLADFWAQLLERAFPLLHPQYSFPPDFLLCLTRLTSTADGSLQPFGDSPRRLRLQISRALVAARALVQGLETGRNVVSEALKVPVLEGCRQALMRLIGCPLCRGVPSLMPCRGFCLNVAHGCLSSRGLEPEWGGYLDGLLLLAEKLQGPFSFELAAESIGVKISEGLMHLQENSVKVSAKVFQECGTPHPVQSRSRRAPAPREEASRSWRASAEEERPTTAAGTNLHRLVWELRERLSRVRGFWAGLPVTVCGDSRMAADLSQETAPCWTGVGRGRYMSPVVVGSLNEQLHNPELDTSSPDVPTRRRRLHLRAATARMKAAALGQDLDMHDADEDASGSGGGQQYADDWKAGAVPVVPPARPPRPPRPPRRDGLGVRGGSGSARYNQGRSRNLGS


Columns and labels:
[1] = target: T1, recombinant human GPC2-His protein; test: SPR, Biacore T200, GPC2-His amine-coupled to CM5 chip, VHH-hIgG1Fc as analyte, 1:1 model
Method: Each of the exemplary anti-GPC2 VHH sequences was cloned into a vector comprising a human IgG1Fc fragment (hlgG1Fc) sequence to facilitate recombinant expression of anti-GPC2 VHH-hlgG1Fc. Recombinant proteins were obtained and purified for SPR assays. The affinity of each anti-GPC2 VHH-hIgG1Fc for GPC2 was determined by SPR using a BIACORE® T200 analytical system (GE Healthcare). Briefly, recombinant human GPC2-His protein was covalently coupled to a CM5(s) sensor chip using an amine coupling kit. Exemplary VHH-hIgG1Fc proteins were serially diluted in running buffer (10 mM HEPES, 150 mM NaCl, 3 mM EDTA, 0.05% Tween-20, pH 7.4) and injected over the chip cell at a flowrate of 100 μL/min for 100 seconds followed by buffer-only injection for 300 seconds to allow for antibody dissociation. The dissociation […] (KD) were determined using the BIACORE® T200 evaluation software version 3.0 (Langmuir binding, local fit, 1:1 binding model).

[2] = target: T2, recombinant mouse GPC2-His; test: ELISA, plate coated with 2 ug/mL rmGPC2, VHH-hIgG1Fc detected with HRP goat anti-human IgG, OD450
Method: (§1) To evaluate the specificity of humanized anti-GPC2 VHH5 to recombinant human GPC2 protein, an ELISA-based binding assay was conducted to determine the differential target proteins binding of anti-GPC2 VHH5. Briefly, microplates were coated with 2 μg/mL recombinant human GPC1-His (RD System, Cat #4519-GP), GPC2-His (RD System, Cat #2304-GP), GPC3-His (ACRO, Cat #GP3-H5223), GPC4-Fc (RD System, Cat #9195-GP), GPC5-His (RD System, Cat #2607-G5/CF), GPC6-His (RD System, Cat #2845-GP) or recombinant mouse GPC2-His (RD System, Cat #2355-GP) proteins. Recombinant human protein coated plates were blocked with skim milk. Serially diluted humanized VHH-hIgG1Fc recombinant antibodies were added to each well of the plates and incubated at 4° C. for 1.5 h. Samples were further labelled with HRP-conjugated goat anti human IgG (H+L) secondary antibody (Genescript, Cat #A00166-1) and signal was developed with 3,3′,5,5′-Tetramethylbenzidine (TMB) substrate according to manufacturer's instruction. For the GPC4, VHH-His recombinant antibodies and anti-His tag secondary antibody (Genescript, Cat #A00612) were added to the GPC4-Fc coated plates instead. Optic density at 450 nm was measured by plate reader.

[3] = target: T3, recombinant human GPC3-His (human, UniProt P51654 25-559); test: ELISA, plate coated with 2 ug/mL rhGPC3-his, VHH-hIgG1Fc detected with HRP goat anti-human IgG, OD450
T3 construct: Bought protein; also called ACRO Cat #GP3-H5223; not shown: His tag
T3 sequence (P51654 25-559 limits assumed): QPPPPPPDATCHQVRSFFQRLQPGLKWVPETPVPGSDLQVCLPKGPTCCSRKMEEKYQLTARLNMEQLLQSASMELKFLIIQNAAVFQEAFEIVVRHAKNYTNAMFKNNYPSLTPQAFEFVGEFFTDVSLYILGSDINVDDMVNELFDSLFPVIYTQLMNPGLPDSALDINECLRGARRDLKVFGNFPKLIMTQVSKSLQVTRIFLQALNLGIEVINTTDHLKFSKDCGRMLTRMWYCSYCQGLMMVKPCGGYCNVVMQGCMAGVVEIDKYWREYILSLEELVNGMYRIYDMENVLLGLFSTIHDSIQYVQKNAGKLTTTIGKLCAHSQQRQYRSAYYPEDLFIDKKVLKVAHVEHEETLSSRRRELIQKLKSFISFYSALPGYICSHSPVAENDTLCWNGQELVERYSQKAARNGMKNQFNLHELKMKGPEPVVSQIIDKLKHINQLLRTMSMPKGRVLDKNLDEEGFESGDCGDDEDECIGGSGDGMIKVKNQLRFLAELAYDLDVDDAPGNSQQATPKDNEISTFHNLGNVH
Method: as §1

Kd [1] [nM] | koff [1] [s⁻¹] | kon [1] [M⁻¹ s⁻¹] | binding result [2] | binding result [3] | Binder
0.82 | 0.00017 | 200000 | no binding (tested: about 300 nM) | no binding (tested: about 300 nM) | AS78117VH4-hIgG1Fc (Fc fusion, also called anti-GPC2 VHH-hIgG1Fc; not shown: human IgG1 Fc fragment (hIgG1Fc)) EVQLVESGGGLVQPGGSLRLSCIVSRYTYATYSMAWFRQAPGKGLEGVSGLDSVGATGYAESVKGRFTISRDNSKNTLYLQMNSLRAEDTAVYYCVVDPASAKVTYGSWSTPSYAYWGQGTLVTVSS
0.37 | 0.00019 | 530000 | no binding (tested: about 300 nM) | no binding (tested: about 300 nM) | AS79236VH6-hIgG1Fc (Fc fusion, also called anti-GPC2 VHH-hIgG1Fc; not shown: human IgG1 Fc fragment (hIgG1Fc)) EVQLVESGGGLVQPGGSLRLSCAVSGYTYSSYCMAWFRQAPGKGLEGVASIDAGGRTTYVDSVKGRFTISKDNAKNSLYLQMNSLRAEDTAMYYCAVDVRTRCGGTWDGEAVYFPYWGQGTLVTVSS
0.27 | 0.00011 | 390000 | no binding (tested: about 300 nM) | no binding (tested: about 300 nM) | AS70950VH6-hIgG1Fc (Fc fusion, also called anti-GPC2 VHH-hIgG1Fc; not shown: human IgG1 Fc fragment (hIgG1Fc)) EVQLVESGGGLVQPGGSLRLSCAISEFTYKNTCVGWFRQAPGKGREGVAAIDSDGNTNYVDSVKGRFTISQDNSKNTVYLQMNSLRAEDTAMYYCAAGAYCGRLLLWIGNYAYWGQGTLVTVSS
